Experiment: soluble on expression in E. coli; label from the status in PepcDB or PDB records

Row | Sequence | soluble on expression in E. coli
1 | MSLAEEISQTTAADTAVTEVRTEDSSQTSSQETAVTETTQSEGTASKQLTTPAVADQTTEPTDNEPISSSDGASSPYQVTDTTEPQQTLTPADSEPQAKADVQQAAAPKKEEINPVTNLEDMSHDTNGTWEVREDGIHSNAIGKGDSFLYSQSSGKNFVYATDVTFKQNSGAAALVFRSNNDSNNKNMYAVNVDIGGHKAKFWRWVDNKDIQLIDERDVVPTADNRYTLKVVAVNNWISYYVNDILMASTGDYVLQKADKGQNTVIPEGHFGLLNWNGDMVFQNTKFALLDDTTAPLIDNITVRSDRGNVEKQGQFFSEEPLHIQYVSNDASQVSLDIAKHNPAATVTVEDKTGRVYTDPSHLPVNVGANYFTVKSTVIDSFGRTVTLTYRINVHRRQNDEVYYNELYRDQYHYSVKDGWANDPNGLVYYNGVYHLFHQFYDDTKWGPMHWAHATSTDLIHWKEEPIAFYPDSNGYMFSGCVVVDEHNSSGLFKTAKGGLVAIITANGNGQRMELAYSEDEGKTWQKYDRIVADWSNDPLQNQDFRDPKVFHWNNQWFMVLAGGPLRIYSSNNLKDWKVESTYPDLHTECPDMYPIVANDGVLKWVLSRGGRFYKVGDFKQVDGKWTFIADDAYKDKDQVMNFGKDSYAAMTYYVHDFGTETRPTIPKLTEVNWMNTWEDYCNLVADTVGQDFNGTFNLNLDLGLINENGQYILTQTPVKAYDSLRDVNTALHFKDVTVDANNTLLKDFKGDSYEIVSHFRPDEKTTKVGFNLRVGNGQATKVIYDLQTETLSIDRSQSGTILSAAFAKVNSQHVTKNADGSIDLHIYVDRASVEVFSKNNTVAGANQIFPNPEAVGASIIVEGGKAQADISVYQMKTIWTDKKDTAKPVAMNTTTAKELALQVGQSQDLQVYLAPASVRQDVEWTISDPSLVRTSQKGNVLHLTAVKKGKLTITAISKENPSLSKTFTISITLNNFKTNLKGLQSVTGKWYVDDETLYDSNTSSNDYYMASQKPGFKEYDYDIDLKYQRGLINLFVASGNIDPSQAYSVQFGDSETVRLYRFAGDTIAEANMGKRINDDQYHHIKVTKTKNSIIISVDGQEVMSHNFDQVDSYFNDAYVGLGLWDGAVEFQNFFVTDHATTPKPDSDPTPQPDAPEALAQERELIDPATGVRVILQKGELASIVRVKVSHIETNDAHTPAVLNAKDYDLFNITPIDKNEKVVAITKPATVLLPIDAGKVVDKVVYLPNTDKEENLPFTIVSLTDSNGKKQSYVRFTAEHFSEYGLVYQAENQTNLKSKEKQDNVAISYPLNLEQEVKVSSISRKYAANKTADVNSVQQTEPSVMSSSPKATLPDTGDHKTDLSQLGVLAMIGSFLVEIAGYFKKRKDEGHHHHHH | soluble
2 | GPGSMSDVKSKEAGANPAASKSGSGEDVAETKLAVPRSLDTGSKKHPLNSSWTLWYDSLSTYDSERWELSLVEVITVRTVEEFFTMLHYCKPPHVLRVSAQYHFFREGVKPMWEDPSNKAGGKLWISLDDKPVGDVGGRKWENANTGGAAGGEKDNASAATNNSNSNQNAKAKKEEQETEKKPELDTMWENLLMAMVGEYLDPEPDGDHIMGLVLSRRKYHNRIALWLRDASASEAVARIEKKLVKEAGLPPAMKFIFTPHSTGK | soluble
3 | MGHHHHHHSHMSEFMQRFADLRDRKAYAEIVDALPYVKLMGTSMAEDEQGELRFELPFLQRNVGNTTLPALHGGLIGGFMESAAMIHLMWNRESLEAPKIVDFSLDYLRPGRPQTLFAQCEITKQGKRVAHVLIEAWQDDRSKPVAVARAHFLLTN | soluble
4 | MEGFSLNQDRGSMQDALKQYKHGLGTFEQKMPLMGRKFNEFTEQCFAGNSLTEREKQLIALGIAINAQDEYCMIYHTKGCLDQGASEENILEAVSVAAAFGGGAAFSQGVTVVQQCIEEFGNTTH | soluble
5 | MGQMADRLAALVVTAFSPDGQIEGSYGAAAGANIRFNGNSYRHYTERGLGHQLSRMAVLVWIAHQRGHDATVAEVTGQPVSRRQETWDARRRRFREEQAETESEGMSTGGLVYFRNTGMRDWHIVIRDGTLSKLDEPEFVKEFLSGYAALSLDYRHKMTKLRTKHYGPDIWMKK | not soluble
6 | MTYDSEFGSHVSLYRDRIKQVIDDSLNEHLNSMILRVDLHDPIDTENMDNPFFQPRVDSGAISRFTSALKAKLKHDKHIKTQRKDWPDSRHSTLRYAWVREYTKNRKRHYHLILCFNQDAYYHLGDYDLNRNTLRTMITTAWYSALGIPIDSSGKLVNYPPNGKYLLNRKRDNFEQTYSDLMNRVDYMTKVRTKIVGDGDRNFGCSRG | soluble
7 | MGEIESYCNKELGPLPTKAPTLSKNVLDLFSLKGKVASVTGSSGGIGWAVAEAYAQAGADVAIWYNSHPADEKAEHLQKTYGVHSKAYKCNISDPKSVEETISQQEKDFGTIDVFVANAGVTWTQGPEIDVDNYDSWNKIISVDLNGVYYCSHNIGKIFKKNGKGSLIITSSISGKIVNIPQLQAPYNTAKAACTHLAKSLAIEWAPFARVNTISPGYIDTDITDFASKDMKAKWWQLTPLGREGLTQELVGGYLYLASNASTFTTGSDVVIDGGYTCP | soluble
8 | MHHHHHHSSGRENLYFQGTGQDALVLGFDWGKFLKDHSYKAAPVSCFKHVPLYDQWEDVMKGMKVEVLNSDAVLPSRVYWIASVIQTAGYRVLLRYEGFENDASHDFWCNLGTVDVHPIGWCAINSKILVPPRTIHAKFTDWKGYLMKRLVGSRTLPVDFHIKMVESMKYPFRQGMRLEVVDKSQVSRTRMAVVDTVIGGRLRLLYEDGDSDDDFWCHMWSPLIHPVGWSRRVGHGIKMSERRSDMAHHPTFRKIYCDAVPYLFKKVRAVYTEGGWFEEGMKLEAIDPLNLGNICVATVCKVLLDGYLMICVDGGPSTDGLDWFCYHASSHAIFPATFCQKNDIELTPPKGYEAQTFNWENYLEKTKSKAAPSRLFNMDCPNHGFKVGMKLEAVDLMEPRLICVATVKRVVHRLLSIHFDGWDSEYDQWVDCESPDIYPVGWCELTGYQLQPPVAAEPATPLKAKEATKKKKKQ | soluble
9 | MLISKHEERVKSILSARMENGNLRSRENTQVEFKQSFNKGNIAIYAKTMAAFSNNSGGYIIFGIKDSPRSIIGLQNSNFENIQQEDLTDSINNLFSPSINELGSFILKEKEINSNGDVIIVQKIIGIYTEESNIKPVIAQKNNSSEKIVNGDIFYRYRARTEKIKYAEMEQIINCRMKQERDSLFKVFEFIRNNGATNLGIVDYNNGKLSTPYGVDVVLEKNLIAKLLKKAKFIKEGSFSENEGIPVIKVTGNINLAEEVPVPLENLDETYPYIQKQLAEKLNITPQKLYALIYFKMKESKKYHLEITTSKTNKTHKFSKFALLFLKEKIIELDENKNELEHHHHHH | not soluble
10 | MSLSIFSHFQERFEATRQEEYSLQEYLDLCKQDKTAYASAAERLLMAIGEPELLDTSVDSRLSRIFSNKVIRRYPAFADFHGMEECIDQIVAFFRHAAQGLEEKKQILYLLGPVGGGKSSLAEKLKQLMEKVPFYAIKGSPVFESPLGLFNPDEDGAILEEDYGIPRRYLRSIMSPWATKRLNEFGGDISQFRVVKLYPSILNQIAIAKTEPGDENNQDISALVGKVDIRKLEEYPQNDADAYSYSGALCRANQGLMEFVEMFKAPIKVLHPLLTATQEGNYNSTEGLGALPYSGIILAHSNESEWHSFRNNKNNEAFIDRIYIVKVPYCLRVADEIKIYDKLLVNSSLAHAHCAPDTLKMLSQFSVLSRLKEPENSNIYSKMRVYDGENLKDTDPKAKSIQEYRDSAGVDEGMAGLSTRFAFKILSKVFNFDPHEVAANPVHLLYVLEQQIEQEQFQPETRERYLRFIKEYLAPRYVEFIGKEIQTAYLESYSEYGQNIFDRYVLYADFWIQDQEYRDPETGEILNRAALNEELEKIEKPAGISNEGHHHHHH | not soluble
11 | MIKLIATDMDGTFLAEDGTYNQEQLAALLPKLAEKGILFAVSSGRSLLAIDQLFEPFLDQIAVIAENGSVVQYRGEILFADMMTKEQYTEVAKKILANPHYVETGMVFSGQKAAYILKGASEEYIQKTKHYYANVKVINGFEDMENDAIFKVSTNFTGHTVLEGSDWLNQALPYATAVTTGFDSIDIILKEVNKGFGMEHLCQALGIKKAETIAFGDNFNDYQMLEFAGRAIATENARPEIKVISDQVIGHCNDGAVLTYLKGLV | not soluble
12 | AGGEDRGDGEPVSVVTVRVQYLEDTDPFACANFPEPRRAPTCSLDGALPLGAQIPAVHRLLGAPLKLEDCALQVSPSGYYLDTELSLEEQREMLEGFYEEISKGRKPTLILRTQLSVRVNAILEKLYSSSGPELRRSLFSLKQIFQEDKDLVPEFVHSEGLSCLIRVGAAADHNYQSYILRALGQLMLFVDGMLGVVAHSDTIQWLYTLCASLSR | not soluble
